Experimental data reported in article doi:10.1101/2024.08.06.606761 (bioRxiv, 2024).

Experiments:
Experiment in all cases: fluorescence polarisation
[1] = molecular target: talin-1 (TLN1) PTB domain, tag cleaved (FP) (human)
[2] = molecular target: SARS-CoV-2 NSP3 ADRP domain, tag cleaved (FP) (SARS-CoV-2)
[3] = molecular target: SARS-CoV-2 NSP3 UBl1 domain, tag cleaved (FP) (SARS-CoV-2)
[4] = molecular target: SARS-CoV-2 NSP3 SUD-M domain, tag cleaved (FP) (SARS-CoV-2)
[5] = molecular target: G3BP1 NTF2-like domain, tag cleaved (FP) (human, UniProt Q13283 11-133)
G3BP1 NTF2-like domain, tag cleaved (FP), sequence (Q13283 11-133): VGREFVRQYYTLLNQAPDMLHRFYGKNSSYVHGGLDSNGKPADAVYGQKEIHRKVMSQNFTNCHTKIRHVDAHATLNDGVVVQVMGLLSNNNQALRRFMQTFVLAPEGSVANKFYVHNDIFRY

[6] = molecular target: SARS-CoV-2 non-structural protein (NSP) 9, tag cleaved (FP) (SARS-CoV-2)

talin-1 (TLN1) PTB domain, tag cleaved (FP) (human), sequence (Q9Y490 whole entry, the tested form may be a part): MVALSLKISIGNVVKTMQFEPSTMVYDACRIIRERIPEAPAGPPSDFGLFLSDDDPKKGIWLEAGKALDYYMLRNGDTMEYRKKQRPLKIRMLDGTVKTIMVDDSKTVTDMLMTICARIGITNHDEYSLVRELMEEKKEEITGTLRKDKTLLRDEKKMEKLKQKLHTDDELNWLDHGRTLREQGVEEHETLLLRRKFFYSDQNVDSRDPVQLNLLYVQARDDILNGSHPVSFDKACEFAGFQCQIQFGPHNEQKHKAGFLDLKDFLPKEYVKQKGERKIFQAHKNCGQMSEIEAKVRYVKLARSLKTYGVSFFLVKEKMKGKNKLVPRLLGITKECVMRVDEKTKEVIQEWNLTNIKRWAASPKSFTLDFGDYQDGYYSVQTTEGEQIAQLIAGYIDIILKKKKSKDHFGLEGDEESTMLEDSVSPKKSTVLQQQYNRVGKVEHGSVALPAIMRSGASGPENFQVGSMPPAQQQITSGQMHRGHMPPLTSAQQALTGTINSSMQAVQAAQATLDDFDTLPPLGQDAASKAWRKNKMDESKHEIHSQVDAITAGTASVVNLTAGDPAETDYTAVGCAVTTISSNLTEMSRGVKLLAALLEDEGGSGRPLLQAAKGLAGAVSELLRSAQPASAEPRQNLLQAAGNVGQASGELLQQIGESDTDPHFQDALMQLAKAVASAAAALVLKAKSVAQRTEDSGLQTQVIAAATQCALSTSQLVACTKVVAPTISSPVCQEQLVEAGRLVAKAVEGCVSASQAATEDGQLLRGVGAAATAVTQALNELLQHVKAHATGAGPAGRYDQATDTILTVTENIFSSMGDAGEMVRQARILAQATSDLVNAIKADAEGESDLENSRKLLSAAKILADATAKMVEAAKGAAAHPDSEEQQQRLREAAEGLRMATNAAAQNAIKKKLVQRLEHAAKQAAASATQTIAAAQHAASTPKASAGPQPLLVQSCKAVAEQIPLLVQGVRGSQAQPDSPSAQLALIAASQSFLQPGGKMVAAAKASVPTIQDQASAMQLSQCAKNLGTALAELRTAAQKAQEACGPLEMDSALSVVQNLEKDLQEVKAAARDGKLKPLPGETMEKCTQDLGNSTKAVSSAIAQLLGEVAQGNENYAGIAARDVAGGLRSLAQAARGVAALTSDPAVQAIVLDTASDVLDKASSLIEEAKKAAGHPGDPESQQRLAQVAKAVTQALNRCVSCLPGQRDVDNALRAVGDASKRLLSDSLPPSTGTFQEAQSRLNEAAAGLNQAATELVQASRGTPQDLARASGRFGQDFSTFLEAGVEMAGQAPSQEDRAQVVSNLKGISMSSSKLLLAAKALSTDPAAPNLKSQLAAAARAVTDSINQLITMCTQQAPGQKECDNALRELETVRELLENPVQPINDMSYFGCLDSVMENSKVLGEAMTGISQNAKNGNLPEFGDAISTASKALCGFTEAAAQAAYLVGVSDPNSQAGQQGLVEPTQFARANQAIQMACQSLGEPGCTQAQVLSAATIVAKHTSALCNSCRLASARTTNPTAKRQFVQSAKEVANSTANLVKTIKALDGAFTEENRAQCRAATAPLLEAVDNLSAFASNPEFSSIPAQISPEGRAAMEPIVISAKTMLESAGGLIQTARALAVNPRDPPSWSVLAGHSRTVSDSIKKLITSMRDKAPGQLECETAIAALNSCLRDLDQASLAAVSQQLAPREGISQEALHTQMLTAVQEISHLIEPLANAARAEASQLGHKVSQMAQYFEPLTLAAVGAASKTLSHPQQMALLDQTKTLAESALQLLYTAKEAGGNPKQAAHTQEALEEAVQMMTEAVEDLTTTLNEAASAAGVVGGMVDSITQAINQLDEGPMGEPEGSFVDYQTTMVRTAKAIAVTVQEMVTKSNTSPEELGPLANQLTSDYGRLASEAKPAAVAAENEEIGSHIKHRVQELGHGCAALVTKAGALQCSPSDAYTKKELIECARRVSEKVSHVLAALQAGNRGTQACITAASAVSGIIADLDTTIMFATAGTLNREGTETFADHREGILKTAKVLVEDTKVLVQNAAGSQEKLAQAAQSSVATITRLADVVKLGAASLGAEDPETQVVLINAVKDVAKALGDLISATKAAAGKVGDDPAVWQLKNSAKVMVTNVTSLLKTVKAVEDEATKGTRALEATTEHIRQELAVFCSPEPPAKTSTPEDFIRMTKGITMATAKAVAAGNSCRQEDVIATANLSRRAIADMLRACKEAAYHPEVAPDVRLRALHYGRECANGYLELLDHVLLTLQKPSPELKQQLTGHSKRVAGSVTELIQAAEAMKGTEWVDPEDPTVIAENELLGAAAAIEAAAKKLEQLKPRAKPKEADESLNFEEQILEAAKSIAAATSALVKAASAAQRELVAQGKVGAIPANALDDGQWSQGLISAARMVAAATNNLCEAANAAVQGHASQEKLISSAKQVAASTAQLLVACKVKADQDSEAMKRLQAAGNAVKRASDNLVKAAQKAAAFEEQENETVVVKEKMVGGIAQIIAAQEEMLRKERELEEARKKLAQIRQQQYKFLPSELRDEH

Molecule	Kd [1] [µM]	other results
TPTE2 92-107 F97W peptide (from UniProt Q6XPS3 92-107)	0.1	–
TPTE2 92-107 F97Y peptide (from UniProt Q6XPS3 92-107)	150	–
TPTE2 92-107 I104A peptide (from UniProt Q6XPS3 92-107)	18	–
TPTE2 92-107 S100N peptide (from UniProt Q6XPS3 92-107)	1.7	–
TPTE2 92-107 Y103W peptide (from UniProt Q6XPS3 92-107)	22	–
wild-type MBOAT1 16-31 peptide (from UniProt Q6ZNC8 16-31)	–	Kd [2]: 49 µM
wild-type NCOA2 1073-1088 peptide (from UniProt Q15596 1073-1088)	–	Kd [3]: 39 µM
wild-type TPTE2 92-107 peptide	4.9	–
QFTEEDLHFVLYGVTPSL (modifications not checked) [wild-type PRDM14 peptide (FP)]	–	Kd [4]: 74 µM
APRITFGGPSDSTGS [wildtype SARS-CoV-2 N 12-26 peptide]	–	Kd [5]: 2.3 µM
QGAWLGAPEPWEPL (modifications not checked) [wild-type NOTCH4 peptide (FP)]	–	Kd [6]: 72 µM
